Where no end group is shown, it is not given here. The star is where a group is joined. Biotin = O=C1N[C@H]2[C@H](CS[C@H]2CCCCC(=O)*)N1
Key:
[1] = molecular target: T1, Peptide A (human PAR-2), N-terminal biotinylated (Human, N-terminal biotin via G4S linker); assay: SPR, peptide immobilized
T1 construct: also called Peptide A N-Term
T1 peptide: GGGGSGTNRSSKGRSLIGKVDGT

[2] = molecular target: T2, Peptide E (mouse PAR-2), N-terminal biotinylated (Mouse (Mus musculus), N-terminal biotin via G4S linker); assay: SPR, peptide immobilized
T2 construct: also called Peptide E N-Term
T2 peptide: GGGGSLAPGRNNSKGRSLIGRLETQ

[3] = molecular target: T3, Peptide B (human PAR-2), N-terminal biotinylated (Human); assay: SPR, peptide immobilized
T3 construct: also called Peptide B N-Term
T3 peptide: Biotin-GGGGSSLIGKVDGTSHVTG

[4] = molecular target: T4, Peptide G (rat PAR-2), N-terminal biotinylated (Rat (Rattus norvegicus), N-terminal biotin via G4S linker); assay: SPR, peptide immobilized
T4 construct: also called Peptide G N-Term
T4 peptide: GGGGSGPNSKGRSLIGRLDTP

[5] = molecular target: T5, Peptide B (human PAR-2), C-terminal biotinylated (Human, not fully specified); assay: SPR, peptide immobilized
T5 construct: also called Peptide B C-Term
T5 peptide: SLIGKVDGTSHVTGGGGGS-biotin
Method: (§1) In another series of experiments, equilibrium dissociation constants (KD values) for purified antibody binding to selected biotinylated and unbiotinylated forms of PAR-2 peptides were determined by surface kinetics using a real-time surface plasmon resonance biosensor assay. Neutravidin (Pierce, Rockford, Ill.) was covalently coupled to the surface of a Biacore™ C1 chip or CM5 chip using amine coupling chemistry. Biotinylated (N-Term or C-Term) PAR-2 peptides (Peptides A and B) were immobilized on the surface via the high affinity binding interaction between biotin and the amine coupled Neutravidin.
(§2) In a first experiment using this format, varying concentrations (ranging from 5 to 100 μg/ml) of purified antibody were injected at a rate of 50 μl/min over a surface coated with immobilized peptide at low-density (<1RU) for 300 seconds. Antibody-peptide binding and dissociation was monitored in real time 25° C.

[6] = molecular target: T6, Peptide A (human PAR-2), C-terminal biotinylated (Human, C-terminal biotin via G4S linker); assay: SPR, peptide immobilized
T6 construct: also called Peptide A C-Term
Method: as §1, §2

[7] = molecular target: T7, Peptide F (monkey PAR-2), N-terminal biotinylated (Monkey (Macaca mulatta), N-terminal biotin via G4S linker); assay: SPR, peptide immobilized; SPR, biotinylated peptide on the chip, bivalent antibody in solution
T7 construct: also called Peptide F N-Term
T7 sequence (peptide, as listed by the source): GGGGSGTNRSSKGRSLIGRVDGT

[8] = molecular target: T8, Peptide C (human PAR-2), N-terminal biotinylated (Human); assay: SPR, peptide immobilized
T8 construct: also called Peptide C N-Term
T8 peptide: Biotin-GGGGSSLIGKV

[9] = molecular target: T9, Peptide B (human PAR-2), unbiotinylated (Human); assay: SPR, antibody captured
T9 construct: also called Peptide B No Biotin
T9 peptide: SLIGKVDGTSHVTG
Method: Equilibrium dissociation constants (KD values) for antigen binding to selected purified PAR-2 antibodies were determined by surface kinetics using a real-time surface plasmon resonance biosensor assay. Antibody was captured on either a rabbit anti-mouse IgG polyclonal antibody (GE Healthcare, Piscataway, N.J.) surface or a goat anti-human IgG polyclonal antibody (Jackson Immuno Research Lab, West Grove, Pa.) surface created through direct amine chemical coupling to a BIACORE™ CM5 sensor chip to form a captured antibody surface. […] Antigen-antibody binding and dissociation were monitored in real time at room temperature. Kinetic analysis was performed to calculate KD and half-life of antigen/antibody complex dissociation (Table 10). For those antibodies where no T_{1/2} value is shown, steady state analysis was used to calculate the KD value. NB: no binding observed under current experimental conditions. ND: not determined.

full length mouse PAR-2 = molecular target: T10, full length mouse PAR-2 (mouse, UniProt P55086 26-399); assay: MSD cell binding
T10 construct: also called 293/D9/mPAR-2rec cells
T10 chain: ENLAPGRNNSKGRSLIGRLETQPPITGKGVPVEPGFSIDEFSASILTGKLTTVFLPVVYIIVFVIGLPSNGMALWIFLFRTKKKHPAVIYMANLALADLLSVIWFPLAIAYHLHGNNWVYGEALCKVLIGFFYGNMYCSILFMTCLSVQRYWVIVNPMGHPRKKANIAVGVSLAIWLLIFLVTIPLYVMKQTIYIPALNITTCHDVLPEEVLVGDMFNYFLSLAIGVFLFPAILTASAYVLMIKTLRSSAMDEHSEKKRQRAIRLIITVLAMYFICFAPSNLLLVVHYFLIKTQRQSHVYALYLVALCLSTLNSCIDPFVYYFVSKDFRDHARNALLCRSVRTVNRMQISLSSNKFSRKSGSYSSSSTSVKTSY
Method: (§3) HEK293 cells were transfected with an NF-κB-luciferase-IRES-eGFP reporter plasmid. […] A clonal cell line, named D9, having low background levels of luciferase activity and high levels of eGFP when induced with IL-1β was made by a series of successive sorts of cell populations using flow cytometry. The 293/D9 cell line was then separately transfected with human PAR-2 or mouse PAR-2 to create the stable cell lines 293/D9/h PAR-2rec and 293/D9/m PAR-2rec, respectively.
(§4) Cells were plated on MSD high-bind 96 well plates at a density of 4×10⁴ cells/well in PBS and incubated for one hour at room temperature. Cells were then blocked in PBS with 2% BSA and incubated at room temperature for one hour. Anti-PAR-2 antibodies (ranging from 100 nM to 0.098 nM) were serially diluted two-fold in PBS with 0.5% BSA and incubated with the cells for one hour at room temperature followed by washing in PBS with 0.5% BSA. Sulfo-tagged anti-human IgG antibody (MSD) at a concentration of 0.1 μg/ml was then added to the cell/antibody mixture and incubated at room temperature for an additional hour. After another wash, a 1× non-surfactant containing read buffer was added and electro-chemiluminescent signal was read on the MSD Sector Imager. Signal of antibody binding to 293/D9 cells was subtracted from signal to 293/D9/hPAR-2rec or 293/D9/mPAR-2rec cells. Subtracted data were analyzed using a sigmoidal dose-response model in GraphPad Prism and EC₅₀ and Bₘₐₓ values were reported (Table 18). EC₅₀ values are defined as the antibody concentration required to achieve 50% maximal binding (Bₘₐₓ) to cells.

full length human PAR-2 = molecular target: T11, full length human PAR-2 (human, UniProt P55085 26-397); assay: MSD cell binding
T11 construct: overexpressed on HEK293-derived 293/D9 cells; also called 293/D9/hPAR-2rec cells
T11 sequence (P55085 26-397 G138A limits assumed): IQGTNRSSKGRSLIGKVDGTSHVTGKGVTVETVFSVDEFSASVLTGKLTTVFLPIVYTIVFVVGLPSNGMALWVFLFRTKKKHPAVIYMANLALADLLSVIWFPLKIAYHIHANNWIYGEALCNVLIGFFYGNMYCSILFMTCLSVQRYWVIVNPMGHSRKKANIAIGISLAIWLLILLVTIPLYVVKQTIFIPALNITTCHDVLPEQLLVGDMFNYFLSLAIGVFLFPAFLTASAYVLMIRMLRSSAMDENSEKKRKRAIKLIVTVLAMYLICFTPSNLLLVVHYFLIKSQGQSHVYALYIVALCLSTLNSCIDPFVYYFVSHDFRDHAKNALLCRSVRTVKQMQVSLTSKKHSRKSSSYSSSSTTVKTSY
Method: as §3, §4

[10] = molecular target: T12, Peptide L (human PAR-3), unbiotinylated (Human); assay: SPR, antibody captured
T12 peptide: DTNNLAKPTLPIKTFRGA

[11] = molecular target: T13, Peptide K (human PAR-1), unbiotinylated (Human); assay: SPR, antibody captured
T13 peptide: ATNATLDPRSFLLRNPND

[12] = molecular target: T14, Peptide M (human PAR-4), unbiotinylated (Human); assay: SPR, antibody captured
T14 peptide: ESGSTGGGDDSTPSILPAP

Kd [1]: 1.52 nM
T1/2 [1]: 3 min
Kd [2]: 1.28 nM
T1/2 [2]: 7 min
binding result [3]: no binding
Kd [4]: 2.94 nM
T1/2 [4]: 2 min
binding result [5]: no binding
Kd [6]: 3.56 nM
T1/2 [6]: 3 min
Kd [7]: 1.84 nM
T1/2 [7]: 2 min
binding result [8]: no binding
binding result [9]: no binding
Bmax (full length mouse PAR-2): 13300 MSD Unit
EC50 (full length mouse PAR-2): 5.76 nM
Bmax (full length human PAR-2): 6550 MSD Unit
EC50 (full length human PAR-2): 9.72 nM
binding result [10]: no binding
binding result [11]: no binding
binding result [12]: no binding
B1: H4H590N (antibody, human IgG4, V domains shown)
VH: EVQLVESGGGLVQPGRSLRLSCAASGFTFDDYAMHWVRQAPGKGLEWVSGITWNSGTMAYADSVKGRFTISRDNAKNSLYLQMNSLRAEDTALYYCAKENWAFDYWGQGTLVTVSS
VL: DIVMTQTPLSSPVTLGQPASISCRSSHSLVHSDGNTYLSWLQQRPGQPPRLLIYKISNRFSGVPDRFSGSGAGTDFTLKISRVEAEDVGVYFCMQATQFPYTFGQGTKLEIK
notes: cloned onto human IgG4; also called H1M590N variable regions

From patent publication US20110059095A1 (Regeneron, published 2011)
